# T1: human CD62P (P-Selectin) on the surface of activated platelets (human, UniProt P16109 42-830)
# T1 sequence: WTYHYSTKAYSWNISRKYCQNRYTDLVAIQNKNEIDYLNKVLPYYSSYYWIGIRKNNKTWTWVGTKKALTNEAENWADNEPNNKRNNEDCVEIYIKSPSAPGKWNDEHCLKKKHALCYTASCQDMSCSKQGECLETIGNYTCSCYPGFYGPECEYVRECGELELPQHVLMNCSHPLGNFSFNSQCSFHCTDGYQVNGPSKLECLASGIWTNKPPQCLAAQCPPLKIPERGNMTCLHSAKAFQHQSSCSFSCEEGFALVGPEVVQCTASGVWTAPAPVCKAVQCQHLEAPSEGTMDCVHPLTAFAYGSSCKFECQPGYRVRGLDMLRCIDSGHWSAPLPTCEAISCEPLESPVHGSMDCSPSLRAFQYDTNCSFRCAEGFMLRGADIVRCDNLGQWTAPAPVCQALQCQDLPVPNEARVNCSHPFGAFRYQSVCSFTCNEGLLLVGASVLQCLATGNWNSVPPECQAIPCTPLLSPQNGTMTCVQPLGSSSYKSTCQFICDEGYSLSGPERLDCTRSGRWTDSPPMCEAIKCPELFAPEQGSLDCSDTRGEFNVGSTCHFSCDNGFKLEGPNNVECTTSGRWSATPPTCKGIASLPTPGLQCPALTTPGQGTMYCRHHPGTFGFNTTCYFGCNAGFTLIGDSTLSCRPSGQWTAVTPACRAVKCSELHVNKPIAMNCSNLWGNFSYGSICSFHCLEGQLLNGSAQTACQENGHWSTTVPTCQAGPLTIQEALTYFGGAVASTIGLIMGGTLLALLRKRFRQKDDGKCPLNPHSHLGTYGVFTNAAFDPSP
# Target: T1, human CD62P (P-Selectin) on the surface …
# Experiment: FACS on activated human platelets; sample incubated without Thrombin
# Protocol: In short, blood from healthy donors was drawn by venipuncture of the antecubital vein. […] Platelet preparations were produced by making a standard Platelet Rich Plasma (PRP). Here, anti-coagulated whole blood was centrifuged (200 g for 15 minutes) without brake. […] Platelets were washed and prepared for staining. […] 50-100,000 cells were used per well.
binder,measurement,value
"EP-FpA-PB1.3 mAb construct, incubated without Thrombin (uncleaved) (antibody, human IgG4, V domains shown, also called Sample 2) VH: EAQLQQSGPELVEPGASVKVSCKASGYTFTNYVMHWVKQKPGQGLEWIGFINPSNDGPKYNERFKNKATLTSDKSSSTAYMELSSLTSEVSAVYFCARARPGFDWYFDVWGAGTTVTVSS VL: DIVMTQSQKFMSTSVGDRVSVTCKASQNVATNVVWYQQRPGQSPKALIYTASYRFSGVPERFSGSGSGTDFTLTITNVQSEDLADYFCQQYNNYPYTFGGGTKVEIQR",binding result,no binding
